The test concerns the target caveolin-3 (Cav3) (mouse (endogenous in cardiomyocytes)) (UniProt P51637). In words: co-IP; endogenous proteins in extracts of mouse cardiomyocytes / heart (WT; for actin-Cav3 also SM22α KO); IgG as negative control; Western blot. (A western blot detects proteins with antibodies after separation by electrophoresis.)
Sequence of UniProt P51637 (P51637 whole entry): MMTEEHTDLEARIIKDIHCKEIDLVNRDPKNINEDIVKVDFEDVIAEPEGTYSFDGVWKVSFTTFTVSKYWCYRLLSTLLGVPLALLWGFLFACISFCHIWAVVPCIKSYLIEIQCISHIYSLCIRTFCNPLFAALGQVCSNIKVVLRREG

With “α-actin (from UniProt P68033 1-377) (natural protein)”, the reduction of the co-precipitate in SM22α KO against WT cardiomyocytes was determined as 34%.

(Values after article PMC9292107.)
